The target of experiment [1] is PI3Kα-RBD (Human PI3Kα residues 157–300) (human) (UniProt P42336). The experiment can be described thus: ITC. (ITC needs no label: the signal is the heat of the interaction.)
For experiment [2], the target named is PI3Kγ-RBD (residues 193–316) (human) (UniProt P48736). The experiment in a line: ITC.

As usually defined, the Kd is the free concentration of one partner at which half of the binding sites on the other are occupied at equilibrium, for simple one-to-one binding. As a reminder, the stoichiometry N is the number of molecules, sites or subunits per partner or assembly. In experiment [1], “KRAS4B^G12V (from UniProt P01116-2 1-169) (enzyme)” displayed a dissociation constant (Kd) of 2.3 µM, a dH of -3.82 kcal/mol and a stoichiometry N of 1.07. In experiment [2], this substance came in with a Kd of 2400 nM, a dH of -4.16 kcal/mol and a stoichiometry N of 0.81.

Turning to “KRAS4B^Q61H (from UniProt P01116-2 1-169) (enzyme)”, in experiment [1], the Kd amounted to 4 µM, the dH is -2.59 kcal/mol and the stoichiometry N is 1.06. For the same substance, in experiment [2], the dissociation constant Kd is 2600 nM, the dH is -2.97 kcal/mol and the stoichiometry N was determined as 0.91.

These data come from publication PMC8005443.
